Here are results for eight sequences from patent US8962795B2, “Factor H binding peptides and uses thereof” (The Trustees of the University of Pennsylvania, priority 2010, dated 2015).

The target of experiment [1] is T1, fH19-20 (Homo sapiens, UniProt P08603).
T1 sequence (P08603 1107-1231): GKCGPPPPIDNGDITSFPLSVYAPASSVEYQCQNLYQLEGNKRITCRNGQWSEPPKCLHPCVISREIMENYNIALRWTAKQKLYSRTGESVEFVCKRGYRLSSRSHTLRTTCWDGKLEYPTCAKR
The experiment is described as follows: Monoclonal phage ELISA, binding of phage clones to fH19-20. The method, then:
(§1) Microtiter wells were coated overnight with either factor H or BSA at 5 μg/mL in PBS at 4° C., and saturated with 5% non-fat milk in PBST for 1 h. Completely separated individual phage plaques from the third round of screening were picked and amplified. Phage particles of each amplified individual phage plaque were added to both factor H- and BSA-coated wells in parallel and allowed to bind at RT for 1 h. After six washes with PBST, bound phages were detected with HRP-conjugated anti-M13 monoclonal antibody (GE Healthcare), using ABTS (Roche) for color development. Clones that bound to factor H but not to BSA were considered positive; single-stranded DNA from positive clones was prepared using an M13 kit (Qiagen, Valencia, Calif.) and sequenced by the DNA sequencing facility of the University of Pennsylvania.
(§2) To localize the binding sites on factor H of the positive clones, we further tested each clone by monoclonal phage ELISA for binding to factor H and its N- and C-terminal fragments, i.e. fH1-4 and fH19-20.
Background: An ELISA detects its analyte on a solid surface through an enzyme-linked reagent.

In the next experiment the test system is Sheep erythrocytes. The experiment is described as follows: Hemolytic assay (factor H cell-surface binding). Type of experiment: cell-based. As to conditions: for effect on hemolytic assay: peptide expressed as fusion protein with phage PIII domain, not shown. As for the experimental part: (§3) To determine whether the binding of the 5C6 peptide interferes with the regulatory activity and cell-surface binding capacity of factor H, we performed factor H cofactor activity assays using purified C3b, factor H and factor I, as well as hemolytic assays, both which were performed in the presence of different concentrations of the 5C6 peptide. The hemolysis assay experiments were repeated at least three times using lepirudin plasma from different blood donors.
Hemolytic assays were performed to determine whether the peptide altered factor H cell-surface binding activity. Sheep erythrocytes (Cocalico Biological Inc., Reamstown, Pa.) were washed with VBS containing 5 mM Mg^2+/EGTA (VBS-Mg^2+/EGTA) until the supernatant was clear. The assay was titrated by lysing erythrocytes in serial dilution with water in a final volume of 300 μl. The OD405 of the supernatants was measured, and the amount of the erythrocytes yielding an OD405 of ˜1 was used in the assay. Serial dilutions of the 5C6 peptide or monoclonal antibody MH10 (which binds fH19-20 and inhibits factor H cell surface binding) with the determined amount of sheep erythrocytes and lepirudin plasma diluted 1:10 in VBS-Mg^2+/EGTA in a final volume of 300 μL were incubated at 37° C. for 1 h in a shaking water bath. After centrifugation the OD405 of the supernatants was measured, and the OD value was used to represent the cell lysis.

Experiment [2] has as its target T2, factor H (Homo sapiens, UniProt P08603).
T2 construct: Human factor H was purified from normal human serum (NHS) by 5-12% PEG precipitation; from tissue; host or cells: normal human serum (NHS)
The experiment is described as follows: Monoclonal phage ELISA, binding of phage clones to factor H (binding area localisation). The following applies: SCR5-18 attributed in absence of stable binding to N- or C-terminus of factor H. As for the experimental part: as §1, §2

Experiment [3] addresses T2, factor H. The experiment is described as follows: ELISA, binding of purified factor H to immobilized biotinylated peptide. As to conditions: biotinylated peptide captured by coated streptavidin, polyclonal antibody detection. As for the experimental part: (§4) Two approaches were used to evaluate the binding of synthetic peptides to factor H. First, we used peptide-phage competition assays, in which serially diluted synthetic peptide was added to its parent phage at the step of phage binding to coated factor H. The rest of the steps were performed as described above for monoclonal phage ELISA. Second, ELISA experiments were used to evaluate the binding of factor H to the immobilized peptide. Microtiter plates were coated with streptavidin (New England Biolabs) at 10 μg/ml in PBS at 4° C. overnight, and saturated with 2% BSA in PBS. After washing, either the biotinylated 5C6 peptide or a biotinylated control peptide (linear compstatin; IAVVQDWGHHRAT; SEQ ID NO:10) was added at 10 μg/ml and allowed to bind at RT for 30 min. The wells were washed again, and factor H serially diluted in PBS, starting with 2.5 μg/ml, was added. After 1 h of binding, the plates were washed, and bound factor H was detected with goat anti-human factor H polyclonal antibody (Quidel, San Diego, Calif.), followed by HRP-conjugated rabbit anti-goat IgG (Bio-Rad). […]

Experiment [4] has as its target T2, factor H. As to the kind of experiment: SPR, factor H on surface-bound peptide. As to conditions: for SPR binding of factor H to immobilized peptide: biotinylated peptide on streptavidin chip, factor H 100 nM. Type of experiment: binding. As for the experimental part:
(§5) The binding of factor H with surface-bound 5C6 peptide was further characterized using surface plasmon resonance (SPR) on a ProteOn XPR36 instrument (Bio-Rad Inc., Hercules, Calif.) using PBST (10 mM sodium phosphate, 150 mM NaCl, 0.005% Tween 20) as running buffer. Streptavidin (50 μg/ml in 10 mM sodium acetate pH 5.0) was immobilized on a GLC sensor chip at 30° C. using amine coupling. The biotinylated 5C6 peptide and a biotinylated control peptide (linear compstatin; see above) were captured on separate streptavidin-coated channels to a density of ˜200 resonance units (RU). Purified factor H (Complement Technologies, Tyler, Tex.) or recombinant fragments fH1-4 and fH19-20 were injected at a concentration of 100 nM for 2 rain at a flow rate of 25 μl/min with a dissociation phase of 6 min. A single injection of 2 M NaCl for 30 s was used to regenerate the surface between injections. Data were processed using ProteOn Manager software by subtracting the signals from interspots and a blank streptavidin channel. In order to estimate the apparent binding affinity, a twofold dilution series of factor H (0.24-500 nM) was injected using the same protocol and fitted to various kinetic models using ProteOn Manager. In order to exclude sensor chip matrix-specific surface binding, the same experiment was repeated on Biacore 3000 instrument (GE Healthcare) using a SA chip under the same conditions as described above.
On the technique in general: SPR reads the build-up and loss of mass on a sensor chip optically.

For experiment [5], the target named is T3, factor H cofactor activity (Homo sapiens, UniProt P08603).
T3 construct: Human factor H was purified from normal human serum (NHS) by 5-12% PEG precipitation; from tissue; host or cells: normal human serum (factor H, C3); factor I from unnamed 'other sources'
As to the kind of experiment: Factor H cofactor activity assay (factor I-mediated cleavage of C3b). Type of experiment: biochemical. As to conditions: for effect on cofactor assay: peptide expressed as fusion protein with phage PIII domain, not shown. The method, then:
as §3
The factor H cofactor activity assay was performed according to known methods. In brief, 1.14 μM C3b, 16 nM factor I, and 72 nM factor H were incubated with various amounts of the 5C6 peptide (0.4, 4, and 40 μM, respectively) in PBS at 37° C. for 1 hr in a final volume of 20 μl. The reaction was terminated by adding SDS-PAGE loading buffer, and the samples were analyzed by 8% SDS-PAGE under reducing conditions, followed by Coomassie blue staining.

The target of experiment [6] is T4, fH1-4 (Homo sapiens, UniProt P08603).
T4 construct: made in house
The experiment is described as follows: Monoclonal phage ELISA, binding of phage clones to fH1-4. As for the experimental part: as §1, §2

For experiment [7], the target named is T4, fH1-4. As to the kind of experiment: SPR, fH1-4 fragment on surface-bound peptide. Type of experiment: binding. The following applies: fragment 100 nM. As for the experimental part:
as §5, with “In order to exclude sensor chip matrix-specific surface binding, the same experiment was repeated on Biacore 3000 instrument (GE Healthcare) using a SA chip under the same conditions as described above.” left out

Experiment [8] deals with T1, fH19-20. As to the kind of experiment: SPR, fH19-20 fragment on surface-bound peptide. The following applies: fragment 100 nM. Type of experiment: binding. The method, then:
as §5, with “In order to exclude sensor chip matrix-specific surface binding, the same experiment was repeated on Biacore 3000 instrument (GE Healthcare) using a SA chip under the same conditions as described above.” left out

Experiment [9] deals with T2, factor H. The experiment is described as follows: Factor H concentration in plasma after incubation on peptide-coated surface. As to conditions: data not shown.
Experiment [10] addresses T2, factor H. The experiment is described as follows: Peptide-phage competition assay. Type of experiment: binding. The following applies: serially diluted synthetic peptide; coated factor H. The method, then:
as §4

Experiment [11] addresses T2, factor H. The experiment is described as follows: Capture of factor H from plasma by immobilized peptide. Type of experiment: binding. The following applies: vs control peptide. The method, then:
as §4, with “After washing, either the biotinylated 5C6 peptide or a biotinylated control peptide (linear compstatin; IAVVQDWGHHRAT; SEQ ID NO:10) was added at 10 μg/ml and allowed to bind at RT for 30 min. The wells were washed again, and factor H serially diluted in PBS, starting with 2.5 μg/ml, was added.” left out
Polystyrene microtiter wells, which served as a model biomaterial, were coated overnight with streptavidin (10 μg/ml in PBS) at 4° C. […] Bound fragments of activated C3 were detected with an HRP-conjugated goat anti-human C3 polyclonal antibody (Cappel, Aurora, Ohio). In parallel, captured factor H from serum was detected with goat anti-human factor H polyclonal antibody followed by HRP-conjugated rabbit anti-goat IgG in duplicate wells as described above.

For experiment [12], the system named is AP complement activation (surface-bound activated C3). As to the kind of experiment: Inhibition of biomaterial-induced AP activation by immobilized peptide (surface-bound activated C3). Type of experiment: biochemical, human. As for the experimental part:
Polystyrene microtiter wells, which served as a model biomaterial, were coated overnight with streptavidin (10 μg/ml in PBS) at 4° C. After washing, the biotinylated 5C6 peptide and the control peptide (10 μg/ml in PBS) were added to the wells and incubated at RT for 30 min. The wells were again washed and serially diluted lepirudin plasma in VBS-Mg^2+/EGTA was added and incubated at RT for 1 h. In some experiments intended to monitor the inhibition of AP by immobilized peptide on a HSA monolayer, the washed wells were saturated with 2% HSA in PBS for 1 h, prior to the addition of plasma. In both series of experiments, the wells were then washed, and the binding sites were saturated with 2% BSA in PBS for 1 h. Bound fragments of activated C3 were detected with an HRP-conjugated goat anti-human C3 polyclonal antibody (Cappel, Aurora, Ohio). In parallel, captured factor H from serum was detected with goat anti-human factor H polyclonal antibody followed by HRP-conjugated rabbit anti-goat IgG in duplicate wells as described above.

Positions of bridges follow the written chain, without caps; N, C: chain ends. No end group written: not given here.

T2 sequence (P08603 19-1231): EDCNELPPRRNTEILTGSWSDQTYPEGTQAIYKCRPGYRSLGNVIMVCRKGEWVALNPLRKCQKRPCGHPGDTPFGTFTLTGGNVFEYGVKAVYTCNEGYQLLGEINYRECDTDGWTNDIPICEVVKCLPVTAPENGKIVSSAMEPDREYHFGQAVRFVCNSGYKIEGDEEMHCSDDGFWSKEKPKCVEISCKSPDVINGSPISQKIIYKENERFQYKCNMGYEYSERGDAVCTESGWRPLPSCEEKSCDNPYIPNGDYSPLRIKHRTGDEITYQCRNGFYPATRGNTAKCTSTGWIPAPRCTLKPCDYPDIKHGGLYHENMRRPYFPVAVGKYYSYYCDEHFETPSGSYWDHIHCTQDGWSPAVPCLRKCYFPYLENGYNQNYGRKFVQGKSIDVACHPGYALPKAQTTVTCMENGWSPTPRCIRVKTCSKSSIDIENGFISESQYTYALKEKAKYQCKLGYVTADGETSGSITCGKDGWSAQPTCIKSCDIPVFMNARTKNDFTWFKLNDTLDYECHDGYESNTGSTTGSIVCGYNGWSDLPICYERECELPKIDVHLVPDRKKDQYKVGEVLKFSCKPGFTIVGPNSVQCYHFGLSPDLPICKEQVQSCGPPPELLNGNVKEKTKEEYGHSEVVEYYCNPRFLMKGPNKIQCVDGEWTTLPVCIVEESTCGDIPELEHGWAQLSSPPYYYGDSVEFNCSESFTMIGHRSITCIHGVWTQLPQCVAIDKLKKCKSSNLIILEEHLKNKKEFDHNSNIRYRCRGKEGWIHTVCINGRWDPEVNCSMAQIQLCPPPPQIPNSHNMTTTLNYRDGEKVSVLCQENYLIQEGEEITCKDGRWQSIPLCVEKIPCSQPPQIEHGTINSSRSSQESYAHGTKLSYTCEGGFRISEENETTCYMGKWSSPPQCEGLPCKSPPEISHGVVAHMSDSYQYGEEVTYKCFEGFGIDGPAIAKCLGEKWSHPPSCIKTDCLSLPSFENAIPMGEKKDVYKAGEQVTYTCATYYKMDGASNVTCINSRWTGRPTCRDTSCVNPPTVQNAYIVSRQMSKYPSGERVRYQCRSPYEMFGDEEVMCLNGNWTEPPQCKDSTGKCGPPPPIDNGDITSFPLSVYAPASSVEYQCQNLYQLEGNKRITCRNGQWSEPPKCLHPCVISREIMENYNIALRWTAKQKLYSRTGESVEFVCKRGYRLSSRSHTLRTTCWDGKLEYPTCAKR
T3 sequence (P08603 19-1231): as above
T4 sequence (P08603 19-264): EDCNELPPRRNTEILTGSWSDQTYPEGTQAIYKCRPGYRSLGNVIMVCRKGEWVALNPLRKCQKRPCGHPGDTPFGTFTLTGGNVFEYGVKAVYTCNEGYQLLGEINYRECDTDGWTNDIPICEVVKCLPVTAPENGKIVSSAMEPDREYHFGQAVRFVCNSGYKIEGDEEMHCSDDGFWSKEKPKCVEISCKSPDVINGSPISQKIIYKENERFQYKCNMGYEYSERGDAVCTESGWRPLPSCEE

Regarding ASSGMCFTKKTVLC [4A1], in the experiment with fH19-20 [1], the “binding of phage clone to fH19-20” value was “bind to the C-terminal two SCR of factor H”. Also, the “effect on hemolytic assay” value in the experiment on Sheep erythrocytes is given as “affected”. Besides, the “Binding area on factor H” value with factor H [2] is listed as “SCR19-20”.

For the sequence ASPSWCSYSHWCRH [5D1], the “Binding area on factor H” value with factor H [2] is given as “SCR5-18”.

As to “IAVVQDWGHHRAT [Control Peptide (LC), reference compound]”, the “binding signal for factor H on immobilized peptide (ELISA)” value with factor H [3] is listed as “not”. In addition, the “SPR binding of factor H to immobilized peptide” value in the experiment with factor H [4] was “no significant binding”.

Take ASSNVCSYSYWCAH [5G11]: the “Binding area on factor H” value in the experiment with factor H [2] is listed as “SCR5-18”.

ASSFKCDYSHWCLH [5E10]: in the experiment with factor H [2], the “Binding area on factor H” value is on record as “SCR5-18”.

As for ASSCMYSYWCTH [5-2B2], the “Binding area on factor H” value with factor H [2] was “SCR5-18”.

Consider ASSYDVGYSHDCRF [5-2C6], for which, in [5], the “effect on cofactor assay” value was “affected”. In the experiment with fH1-4 [6], the “binding of phage clone to fH1-4” value is reported as “bound to the N-terminal regulatory region of factor H”. Moreover, the “Binding area on factor H” value with factor H [2] was “SCR1-4”.

As to “ASSSRCTYDHWCSH (disulfide 6-12 (inferred); not fully specified; also: biotinylated) [5C6, used biotinylated when immobilized]”, in the experiment with factor H [3], the “binding signal for factor H on immobilized peptide (ELISA)” value is “strong binding signal”. Also, in the experiment with factor H [4], the “SPR binding of factor H to immobilized peptide” value is “high binding activity and stability”. Further, the “SPR apparent binding affinity for factor H” value with factor H [4] (dilution series of factor H 0.24-500 nM, deviation from single-site model, apparent) is “concentration-dependent binding with high affinity”. Also, the “SPR binding of fH1-4 fragment to immobilized peptide” value with fH1-4 [7] is “no binding”. In addition, the “effect on cofactor assay” value in experiment [5] is on record as “no such effect”. Also, the “effect on factor H cofactor activity” value in [5] (synthetic peptide up to 40 μM, 550-fold excess over factor H (72 nM)) was “did not inhibit”. In addition, in the experiment with fH19-20 [8], the “SPR binding of fH19-20 fragment to immobilized peptide” value was “a significant SPR response could also be detected for the fH19-20 fragment, this interaction was not stable”. The “lysis of sheep erythrocytes” value in the experiment with Sheep erythrocytes (10-fold diluted lepirudin plasma, peptide up to 40 μM) is “No lysis”. In addition, in the experiment with Sheep erythrocytes, the “effect on hemolytic assay” value is “no such effect”. For the same sequence, in the experiment with factor H [2], the “Binding area on factor H” value is on record as “SCR5-18”. For the same sequence, in the experiment with factor H [9], the “factor H concentration in plasma incubated on peptide-coated surface” value is “no significant decline”. In addition, the “inhibition of binding of the other class 3 phages to factor H by 5C6 peptide” value in the experiment with factor H [10] is “strongly inhibited”. In addition, the “inhibition of parent phage binding to factor H by synthetic peptide” value in the experiment with factor H [10] is “inhibited its parent phages from binding to factor H in a dose-dependent manner”. The “factor H capture from plasma by immobilized peptide” value was “pronounced factor H capture” with factor H [11] (polystyrene with HSA monolayer) and “captured more factor H” in the experiment with factor H [11] (polystyrene without HSA pre-saturation). For the same sequence, the “complement activation on peptide-immobilized surface” value was “substantially inhibited” in experiment [12] (polystyrene with HSA monolayer, lepirudin plasma in VBS-Mg2+/EGTA, vs control peptide) and “strongly inhibited” in experiment [12] (polystyrene without HSA pre-saturation, plasma).
